Measurements from PMC10346447.

Molecular target: AvrLm10B_like2‐RFP (Leptosphaeria maculans 'brassicae')
Assay: FRET or BRET

AvrLm10A_like2‐GFP (natural protein)
FRET efficiency E: 32.1%
donor (GFP) mean fluorescence lifetime τ with the acceptor: 1.89 ns
